Experimental data: PMC12054373

How the values were obtained:
[1] = target: T1, bS21 (Halalkalibacterium halodurans C-125?) (UniProt Q9KD65); assay: filter binding; details: Filter binding: 20 mM Tris-HCl pH 7.5, 150 mM NaCl, 10 mM MgCl2, 1 mM TCEP, 5% glycerol, 0.001% SDS, ~2.5 nM RNA, 20°C, 15 min; in-line probing buffer not in …
T1 sequence: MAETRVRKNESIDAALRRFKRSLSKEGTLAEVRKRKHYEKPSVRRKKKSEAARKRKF

[2] = target: T1, bS21 (Halalkalibacterium halodurans C-125?); assay: footprinting (in-line probing); details: Filter binding: 20 mM Tris-HCl pH 7.5, 150 mM NaCl, 10 mM MgCl2, 1 mM TCEP, 5% glycerol, 0.001% SDS, ~2.5 nM RNA, 20°C, 15 min; in-line probing buffer not in …

Sequence | binding [1] | binding [2]
GGAUCGAUGAAGCUCCUUGUGAUGGCUUGAGGCGCCCAGCCUUGGGUCAUUGCUGGGAGAAAAGGUAGUAGGGCGAUCCACAAAGGCAUGUGGGCGAUGACCCUCCUACUG [OLE83-191 WT] | binds | binds
GGCAUUUAAAGAGGAUUACAGUGUGGACUAAGUGGUAAUCCAGUCUGGCGUUUGGUGACAGCGCCAAGUUCAACAUAAAGGGAAACCGCCAGCGCGGCGACGCACUGGUGUUGAAUUGGGAAAUCCUACUGGACCUAAGCCACAGAGUUUACUCUUUAAAUG [OLE449-608] | binds more weakly | –
GGGGCACAUCGAUGAAGCUCCUUGUGAUGGCUUGAGGCGCCCAGCCUUGGGUCAUUGCUGGGAGAAAAGGUAGUAGGGCGAUCCACAAAGGCAUGUGGGCGAUGACCCUCCUACUGUGGAGGCCUUUUUCUCUGCUGCUUAUGUAUGGACAUAGGGCAAGAGCAAAGGGUAUGAACCUGCGAAGGCAAGCUAGGGAGCUUGUCAGCAGCGUAGCC [OLE78-290] | binds | binds
